For the series, the system named is MutY (Escherichia coli). The note with it: A.G to C-G correction by complementation of mutS mutY extract; fraction V.

The text below walks through data of US5556750.

Turning to A.G mismatch heteroduplex, the activity was found to be 480000 units/mg.
